Assay [1] deals with T1, c-erbB-2 (extract of SK-Br-3 breast cancer cells coated on the plate) (UniProt P04626 23-1255).
T1 construct: Crude detergent extract of the cells, not purified protein; also called c-erbB-2 antigen
The assay is described as follows: competition ELISA, SK-Br-3 extract on plate, 520C9-HRP probe as competitor. The method, then: In order to prepare c-erbB-2, SK-Br-3 breast cancer cells (Ring et al., 1989, Cancer Res. 49: 3070–3080), were harvested and resuspended in 10 mM NaCl, 0.5% Nonidet-P40, pH 8. Insoluble debris was removed by centrifugation and the extract filtered through 0.45 Millex HA and 0.2 Millex GV filters. 40µl of the extract was added to each well of a 96 well plate and incubated overnight at 37° C. The plates then were washed with PBS and non-specific binding sites blocked following the addition of PBS containing 1% skim milk by incubation for one hour at room temperature. The sFv and 520C9 Fab samples, diluted in PBS, were added to the wells and incubated for 30 mins at room temperature. A control containing only dilution buffer was also included.
In order to quantitate the reaction, 20µl of a 520C9-horseradish peroxidase (HRP) probe (Zymed Labs., South San Francisco, Calif.), diluted to 14 µl/ml in PBS containing 1% skim milk, was added to each well and incubated for one hour at room temperature. The plate was then washed four times with PBS, the peroxidase substrate added and incubated for 30 minutes at room temperature. The reaction was quenched with H_2SO_4 and the […] values measured.

Assay [2] deals with T2, c-erbB-2 extracellular domain (ECD) with His6 peptide, attached to agarose beads (UniProt P04626 23-652, limits assumed).
T2 construct: extracellular domain; Expressed in CHO cells, purified by IMAC, coupled to agarose beads
The assay is described as follows: affinity chromatography on c-erbB-2 ECD-agarose, eluted with 5M LiCl. The method, then:
The (sFv')_2 heterodimers can be separated by a two step affinity chromatography procedure taking advantage of the bivalent nature of the dimer. For instance, during the purification of the 741F8/26-10 heterodimer the mixture initially was loaded onto an ouabain-Sepharose column, washed with a PBS, 1 M NaCl buffer, to remove any non-specifically adsorbed material, and rewashed with PBS to reduce the salt concentration. The reactive 26-10 sFv' species bound to the resin were eluted with 20 mM ouabain in PBS and the eluate dialyzed against PBS to remove the cardiac glycoside. The 741F8/26-10 heterodimers were then repurified on a c-erbB-2-agarose affinity column taking advantage of the ECD binding site in the heterodimer. […] Prior to use, the buffer was exchanged with PBS by dialysis.

In assay [3] the target is T2, c-erbB-2 extracellular domain (ECD) …. The assay can be described thus: affinity chromatography on c-erbB-2 ECD-agarose. An excerpt:
The refolded 26-10 sFv' polypeptide chains were purified by ouabain-Sepharose affinity chromatography, as described for the 26-10 sFv constructs (Huston, et. al., 1988, *Proc. Natl Acad. Sci. USA* 85; 5879–5883 and Tai, et al., 1990, *Biochem.* 29, 8024–[…], both of which are hereby incorporated by reference). The refolded 520C9 sFv polypeptide chain was similarly purified using a c-erbB-2-agarose affinity column. […] The buffer was then exchanged by dialysis. The c-erbB-2 affinity column preferably was prepared by linking the extracellular domain of c-erbB-2 onto agarose beads.

Here are results for 3 molecules from patent publication US7138497 (CHIRON, dated 2006).

B1: Fab fragment of the 520C9 monoclonal antibody (Fab, V domains shown)
VH: EIQLVQSGPELKKPGETVKISCKASGYTFANYGMNWMKQAPGKGLKWMGWINTYTGQSTYADDFKERFAFSLETSATTAHLQINNLRNEDSATYFCARRFGFAYWGQGTLVSVSA
VL: DIQMTQSPSSLSASLGERVSLTCRASQDIGNSLTWLQQEPDGTIKRLIYATSSLDSGVPKRFSGSRSGSDYSLTISSLESEDFVVYYCLQYAIFPYTFGGGTNLEIK
notes: Fab of the parental murine monoclonal antibody 520C9; The limits of VH (1-115) are derived from the printed linker position; also called 520C9 Fab; parental 520C9 Fab fragment
As for B1, in assay [1], the binding result was “binds”.

B2: 741F8/26-10 (sFv')2 heterodimer (bispecific antibody)
scFv 1: MAEIQLVQSGPELKKPGETVKISCKASGYTFTNYGMNWVKQAPGKGLKWMGWINTNTGEPTYAEEFKGRFAFSLETSASTAYLQINNLKNEDTATYFCGRQFITYGGFANWGQGTLVTVSASSSSGSSSSGSSSSDIVMTQSPKFMSTSVGDRVSISCKASQDVSTAVAWYQQKPGQSPKLLIYWTSTRHTGVPDRFTGSGSGTDYTLTISSVQAEDLALHYCQQHYRVPYTFGGGTKLEIKRADGGGGC
scFv 2: MEVQLQQSGPELVKPGASVRMSCKSSGYIFTDFYMNWVRQSHGKSLDYIGYISPYSGVTGYNQKFKGKATLTVDKSSSTAYMELRSLTSEDSAVYYCAGSSGNKWAMDYWGHGASVTVSSSGSSSSGSSSSGSDVVMTQTPLSLPVSLGDQASISCRSSQSLVHSNGNTYLNWYLQKAGQSPKLLIYKVSNRFSGVPDRFSGSGSGTDFTLKISRVEAEDLGIYFCSQTTHVPPTFGGGTKLEIKRSGGGGC
modifications: C-terminal cysteine of the (Gly)4-Cys tail disulfide linked to the other chain
notes: Made by reacting 26-10 sFv'-TNB with reduced 741F8 sFv'; also called 741F8/26-10 heterodimer
In the case of B2, the binding result in assay [2] was “binds”.

B3: 520C9 sFv single-chain binding protein (scFv)
scFv: EIQLVQSGPELKKPGETVKISCKASGYTFANYGMNWMKQAPGKGLKWMGWINTYTGQSTYADDFKERFAFSLETSATTAHLQINNLRNEDSATYFCARRFGFAYWGQGTLVSVSASISSSSGSSSSGSSSSGSDIQMTQSPSSLSASLGERVSLTCRASQDIGNSLTWLQQEPDGTIKRLIYATSSLDSGVPKRFSGSRSGSDYSLTISSLESEDFVVYYCLQYAIFPYTFGGGTNLEIKRAD
notes: also called biosynthetic 520C9 sFv
Consider B3, for which the binding result in assay [1] and in assay [3] was “binds” in each case.
